Experimental data from publication PMC12774657.

What was measured:
[1] = target: HIF1a bHLH-PASA-PASB;ARNT bHLH-PASA-PASB (;) (UniProt Q16665+P27540); assay: EMSA; conditions: EMSA: 10 nM probe, 20 mM Tris pH 8.0, 250 mM NaCl, 16 ug/ml salmon sperm ssDNA, 30 ug/ml BSA, 1.25 mM MgCl2, 6% glycerol, 10 mM DTT, room temperature 30 min …
[2] = target: HIF2a bHLH-PASA-PASB;ARNT bHLH-PASA-PASB (;) (UniProt Q99814+P27540); assay: EMSA; conditions: EMSA: 10 nM probe, 20 mM Tris pH 8.0, 250 mM NaCl, 16 ug/ml salmon sperm ssDNA, 30 ug/ml BSA, 1.25 mM MgCl2, 6% glycerol, 10 mM DTT, room temperature 30 min …

Substance: TACGTG-containing EMSA probe
- binding signal (fold affinity vs HIF2a/ARNT) [1]: 2
- binding signal (reference (HIF1a/ARNT ~2 fold higher)) [2]: 1
